Laboratory results taken from paper PMC2133194.
Like-named read-outs stand apart in the source and are kept apart here.

Tests used:
Assay in all cases: flow cytometry on cells
[1] = target: human CD34 on CHO/FTVII/C2GnT cells cotransfected with KSGal6ST and HEC-GlcNAc6ST (human) (UniProt P28906)
[2] = target: human CD34 on CHO/FTVII/C2GnT cells cotransfected with HEC-GlcNAc6ST (human) (UniProt P28906)
[3] = target: human CD34 on CHO/FTVII/C2GnT cells cotransfected with KSGal6ST (human) (UniProt P28906)
[4] = target: human CD34 on CHO/FTVII/C2GnT cells cotransfected with KSGal6ST and HEC-GlcNAc6ST (human) (UniProt P28906); remark: listed apart in the source
[5] = target: human CD34 on CHO/FTVII/C2GnT cells cotransfected with HEC-GlcNAc6ST (human) (UniProt P28906); remark: listed apart in the source
[6] = target: human CD34 on CHO/FTVII/C2GnT cells cotransfected with KSGal6ST (human) (UniProt P28906); remark: listed apart in the source

An MFI of L-sel/IgM staining (KSGal6ST 0.5 ug, HEC-GlcNAc6ST 0.5 ug) [1] of 836 MFI, an MFI of L-sel/IgM staining (KSGal6ST 0 ug, HEC-GlcNAc6ST 1.0 ug) [2] of 60 MFI and an MFI of L-sel/IgM staining (KSGal6ST 1.0 ug, HEC-GlcNAc6ST 0 ug) [3] of 197 MFI were found for “L-selectin/IgM chimera (from UniProt P18337 39-332) (Fc fusion)” in this work. It also gave an MFI of L-sel/IgM staining (KSGal6ST 0.5 ug, HEC-GlcNAc6ST 0.5 ug) [4] of 935 MFI, an MFI of L-sel/IgM staining (KSGal6ST 0.5 ug, HEC-GlcNAc6ST 1.0 ug) [4] of 830 MFI and an MFI of L-sel/IgM staining (KSGal6ST 1.0 ug, HEC-GlcNAc6ST 0.5 ug) [4] of 917 MFI. For the same substance, the MFI of L-sel/IgM staining (KSGal6ST 0 ug, HEC-GlcNAc6ST 1.0 ug) [5] was 114 MFI, the MFI of L-sel/IgM staining (KSGal6ST 0 ug, HEC-GlcNAc6ST 1.5 ug) [5] was 163 MFI and the MFI of L-sel/IgM staining (KSGal6ST 1.0 ug, HEC-GlcNAc6ST 0 ug) [6] was 364 MFI. For the same substance, the MFI of L-sel/IgM staining (KSGal6ST 1.5 ug, HEC-GlcNAc6ST 0 ug) [6] was 391 MFI.
